# Laboratory results from publication PMC3961692.
# Experiments:
# [1] = target: human interleukin-6 (Homo sapiens) (UniProt P05231); experiment: solution affinity (radiolabel, ZORBAX resin capture); details: SB17T: 40 mM HEPES pH 7.5, 102 mM NaCl, 5 mM KCl, 5 mM MgCl2, 1 mM EDTA, 0.05% Tween 20, 37 C
# [2] = target: human interleukin-6 (Homo sapiens) (UniProt P05231); experiment: SPR; details: 2'-OMe at C3,G6,A16,A19,C20,C28; Bn-dU9 to Pe-dU; Bn-dU12 to Nap-dU; other dT Bn-dU; SB17T: 40 mM HEPES pH 7.5, 102 mM NaCl, 5 mM KCl, 5 mM MgCl2, 1 mM EDTA, 0.05% Tween 20, 37 C
# Chain of human interleukin-6 (Homo sapiens) (P05231 30-212): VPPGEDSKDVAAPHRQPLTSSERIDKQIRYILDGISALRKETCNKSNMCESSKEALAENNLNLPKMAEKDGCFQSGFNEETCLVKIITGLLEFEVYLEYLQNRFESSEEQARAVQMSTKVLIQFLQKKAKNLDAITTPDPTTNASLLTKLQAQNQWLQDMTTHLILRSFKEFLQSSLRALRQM
sequence,measurement,setting,value
GGCAGGUUUGGUAUUAACACGUUAAGUCGUGG [SL1023],Kd,[1]; Bn-dU replaces dT,1000 pM
GGCAGGUUUGGUAUUAACACGUUAAGUCGUGG [SL1025],Kd,[2],230 pM
same,Kd,"[1]; 2'-OMe at C3,G6,A16,A19,C20,C28, Bn-dU9 to Pe-dU, Bn-dU12 to Nap-dU, other dT Bn-dU",160 pM
GGGGUUAUGUAGCGAGUGCGUAAGGCGGUGGGCGAGGGA [SL1030],binding signal (fold weaker than SL1032),[1]; Nap-dU replaces dT,10
